The chains are these.
B1: micro-plasmin (enzyme, human, UniProt P00747 562-810, looked up)
chain: APSFDCGKPQVEPKKCPGRVVGGCVAHPHSWPWQVSLRTRFGMHFCGGTLISPEWVLTAAHCLEKSPRPSSYKVILGAHQEVNLEPHVQEIEVSRLFLEPTRKDIALLKLSSPAVITDKVIPACLPSPNYVVADRTECFITGWGETQGTFGAGLLKEAQLPVIENKVCNRYEFLNGRVQSTELCAGHLAGGTDSCQGDSGGPLVCFEKDKYILQGVTSWGLGCARPNKPGVYVRVSRFVTWIEGVMRNN
notes: domain: micro-plasmin; Made as in Reed et al., 1999; also called human micro-plasmin
B2: native human α2-antiplasmin (other, UniProt P08697 40-491, looked up)
chain: NQEQVSPLTLLKLGNQEPGGQTALKSPPGVCSRDPTPEQTHRLARAMMAFTADLFSLVAQTSTCPNLILSPLSVALALSHLALGAQNHTLQRLQQVLHAGSGPCLPHLLSRLCQDLGPGAFRLAARMYLQKGFPIKEDFLEQSEQLFGAKPVSLTGKQEDDLANINQWVKEATEGKIQEFLSGLPEDTVLLLLNAIHFQGFWRNKFDPSLTQRDSFHLDEQFTVPVEMMQARTYPLRWFLLEQPEIQVAHFPFKNNMSFVVLVPTHFEWNVSQVLANLSWDTLHPPLVWERPTKVRLPKLYLKHQMDLVATLSQLGLQELFQAPDLRGISEQSLVVSGVQHQSTLELSEVGVEAAAATSIAMSRMSLSSFSVNRPFLFFIFEDTTGLPLFVGSVRNPNPSAPRELKEQQDSPGNKDFLQSLKGFPRGDKLFGPDLKLVPPMEEDYPQFGSPK
modifications: radioiodinated (125I) in the binding assays
notes: mature; Bought native protein; also called native human α2-AP; native α2-AP
B3: pork trypsin (enzyme, UniProt P00761 9-231, looked up)
chain: IVGGYTCAANSIPYQVSLNSGSHFCGGSLINSQWVVSAAHCYKSRIQVRLGEHNIDVLEGNEQFINAAKIITHPNFNGNTLDNDIMLIKLSSPATLNSRVATVSLPRSCAAAGTECLISGWGNTKSSGSSYPSLLQCLKAPVLSDSSCKSSYPGQITGNMICVGFLEGGKDSCQGDSGGPVVCNGQLQGIVSWGYGCAQKNKPGVYTKVCNYVNWIQQTIAAN

In experiment [1] the target is B2. In words: k1, rate constant of reversible complex formation, from continuous inhibition kinetics with S-2251. The method, then:
(§1) Native α₂-AP (1.8 μM) was pre-incubated with or without of MAbs (49, 77, Dig-control; 1.8 μM or RWR 1.8 μM and 18 μM) for 60 min at 4° C. The fast inhibition of plasmin, micro-plasmin and trypsin was examined by a continuous method as described (Wiman, B. and Collen, D. On the kinetics of the reaction between human antiplasmin and plasmin. Eur J Biochem 1978; 84: 573-578). The serine protease (20 nM) was added to a cuvette containing S-2251 (500 μM) in 300 μl of TBS buffer, and the change in absorbance at 405 nm was recorded at 0.1-min intervals prior to and after the addition of 10 μl of α₂-AP (1.8 μM) or preformed α₂-AP/MAb complex. The final concentration of α₂-AP in the cuvette was 60 nM. The percentage of residual protease activity was calculated from the initial value (defined as 100%). The inhibition constant (i.e., k₁, the rate constant of reversible complex formation) was determined as described (Turner et al., 2002, J Biol. Chem. 277:33068-33074).

The target of experiment [2] is T1, human Lys-plasmin (human, UniProt P00747 97-810). The experiment can be described thus: cell-based or functional assay.
The target in experiment [3] is T1, human Lys-plasmin. In words: k1, rate constant of reversible complex formation, from continuous inhibition kinetics with S-2251. As for the experimental part:
as §1

In experiment [1], B1 gave a kon of 33000 M⁻¹ s⁻¹. For the molecule B2, the “stoichiometry of inhibition (SI)” value with human Lys-plasmin [2] was 1.1. This molecule also returned a kon with human Lys-plasmin [3] above 2.6e+06 M⁻¹ s⁻¹. Consider B3, for which, in experiment [1], the kon was 476000 M⁻¹ s⁻¹.

The record behind these values is patent publication US20160039943A1 (TRANSLATIONAL SCIENCES, published 2016).
